PMC8440931, “Physical and Functional Interaction of Mitochondrial Single-Stranded DNA-Binding Protein and the Catalytic Subunit of DNA Polymerase Gamma” (Frontiers in Genetics, 2021)
Each block holds one molecule with its values, some of them ahead of it.

B2: catalytic subunit of mitochondrial DNA polymerase gamma (Pol γα) (enzyme, human, UniProt P54098 1-1239, looked up)
chain: MSRLLWRKVAGATVGPGPVPAPGRWVSSSVPASDPSDGQRRRQQQQQQQQQQQQQPQQPQVLSSEGGQLRHNPLDIQMLSRGLHEQIFGQGGEMPGEAAVRRSVEHLQKHGLWGQPAVPLPDVELRLPPLYGDNLDQHFRLLAQKQSLPYLEAANLLLQAQLPPKPPAWAWAEGWTRYGPEGEAVPVAIPEERALVFDVEVCLAEGTCPTLAVAISPSAWYSWCSQRLVEERYSWTSQLSPADLIPLEVPTGASSPTQRDWQEQLVVGHNVSFDRAHIREQYLIQGSRMRFLDTMSMHMAISGLSSFQRSLWIAAKQGKHKVQPPTKQGQKSQRKARRGPAISSWDWLDISSVNSLAEVHRLYVGGPPLEKEPRELFVKGTMKDIRENFQDLMQYCAQDVWATHEVFQQQLPLFLERCPHPVTLAGMLEMGVSYLPVNQNWERYLAEAQGTYEELQREMKKSLMDLANDACQLLSGERYKEDPWLWDLEWDLQEFKQKKAKKVKKEPATASKLPIEGAGAPGDPMDQEDLGPCSEEEEFQQDVMARACLQKLKGTTELLPKRPQHLPGHPGWYRKLCPRLDDPAWTPGPSLLSLQMRVTPKLMALTWDGFPLHYSERHGWGYLVPGRRDNLAKLPTGTTLESAGVVCPYRAIESLYRKHCLEQGKQQLMPQEAGLAEEFLLTDNSAIWQTVEELDYLEVEAEAKMENLRAAVPGQPLALTARGGPKDTQPSYHHGNGPYNDVDIPGCWFFKLPHKDGNSCNVGSPFAKDFLPKMEDGTLQAGPGGASGPRALEINKMISFWRNAHKRISSQMVVWLPRSALPRAVIRHPDYDEEGLYGAILPQVVTAGTITRRAVEPTWLTASNARPDRVGSELKAMVQAPPGYTLVGADVDSQELWIAAVLGDAHFAGMHGCTAFGWMTLQGRKSRGTDLHSKTATTVGISREHAKIFNYGRIYGAGQPFAERLLMQFNHRLTQQEAAEKAQQMYAATKGLRWYRLSDEGEWLVRELNLPVDRTEGGWISLQDLRKVQRETARKSQWKKWEVVAERAWKGGTESEMFNKLESIATSDIPRTPVLGCCISRALEPSAVQEEFMTSRVNWVVQSSAVDYLHLMLVAMKWLFEEFAIDGRFCISIHDEVRYLVREEDRYRAALALQITNLLTRCMFAYKLGLNDLPQSVAFFSAVDIDRCLRKEVTMDCKTPSNPTGMERRYGIPQGEALDIYQIIELTKGSLEKRSQPGP
B3: biotinylated mtSSB variant lacking nine residues of loop 2.3 (Δ67-75), BTN-mtSSB_(l2.3) (natural protein, human, UniProt Q04837 17-148, looked up)
chain: ESETTTSLVLERSLNRVHLLGRVGQDPVLRQVEGKNPVTIFSLATNEMWRGDVSQKTTWHRISVFRPGLRDVAYQYVKKGSRIYLEGKIDYGEYMDKNNVRRQATTIIADNIIFLSDQTKEKE
modifications: biotin (conjugated; site not stated)
notes: also called loop 2.3-deficient mtSSB; source: purified recombinant protein; details in the Supplementary Materials

Columns and labels:
Pol γβ (Homo sapiens) = Pol γβ (Homo sapiens) (UniProt Q9UHN1); settings: cited from earlier work
Chain of Pol γβ (Homo sapiens) (Q9UHN1 2-485): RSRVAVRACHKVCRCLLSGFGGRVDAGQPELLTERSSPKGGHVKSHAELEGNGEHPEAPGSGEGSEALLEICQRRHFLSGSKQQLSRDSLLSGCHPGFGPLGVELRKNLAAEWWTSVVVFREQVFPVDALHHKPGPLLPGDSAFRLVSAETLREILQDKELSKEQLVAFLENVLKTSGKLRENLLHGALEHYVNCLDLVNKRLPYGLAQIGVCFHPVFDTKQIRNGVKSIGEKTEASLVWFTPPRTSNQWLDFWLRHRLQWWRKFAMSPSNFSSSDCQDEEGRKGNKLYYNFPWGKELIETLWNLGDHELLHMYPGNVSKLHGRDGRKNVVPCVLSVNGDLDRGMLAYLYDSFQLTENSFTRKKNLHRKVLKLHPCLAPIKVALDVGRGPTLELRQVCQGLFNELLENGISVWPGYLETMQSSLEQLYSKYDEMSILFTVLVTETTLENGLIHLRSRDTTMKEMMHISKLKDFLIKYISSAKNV

[1] = biological target: B2; test: BLI; BTN-mtSSB or BTN-mtSSB_(l2.3) (600 nM) saturated on streptavidin sensors; Pol γα as analyte at increasing concentrations; Ac buffer: 50 mM Tris-HCl pH 8.0, 10 mM KCl, 4 mM MgCl2, 0.4 mg/ml BSA, 10 mM DTT; 30°C, 1,000 rpm; 1:1 interaction model; settings: both partners purified
[2] = biological target: B3; test: cell-based or functional assay
mtSSB (wild type) = biological target: T1, mtSSB (wild type) (UniProt Q04837 17-148); test: BLI; 4 mM Mg2+; equilibrium responses of mass transfer fit, non-1:1 binding; BLI: 50 mM Tris-HCl pH 8.0, 10 mM KCl, 4 mM MgCl2, 0.4 mg/ml BSA, 10 mM DTT, 30 C; settings: protein: recombinant; chain copies: 4; label: 5'-biotin (immobilized on streptavidin sensor); single strand
T1 sequence: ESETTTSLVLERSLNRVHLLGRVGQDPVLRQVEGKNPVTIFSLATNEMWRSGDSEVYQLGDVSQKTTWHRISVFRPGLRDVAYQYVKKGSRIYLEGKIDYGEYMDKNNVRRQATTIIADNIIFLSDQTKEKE

Molecule: Pol γα (from UniProt P54098)
Kd (Pol γβ (Homo sapiens)): 20 nM

Kd [1]: 48 nM
B1: biotinylated mitochondrial single-stranded DNA-binding protein (BTN-mtSSB), wild type (natural protein, human, UniProt Q04837 17-148, looked up)
chain: ESETTTSLVLERSLNRVHLLGRVGQDPVLRQVEGKNPVTIFSLATNEMWRSGDSEVYQLGDVSQKTTWHRISVFRPGLRDVAYQYVKKGSRIYLEGKIDYGEYMDKNNVRRQATTIIADNIIFLSDQTKEKE
modifications: biotin (conjugated; site not stated)
notes: also called mtSSB4; wild-type mtSSB; source: purified recombinant protein; details in the Supplementary Materials

Molecule: B2
inhibition of primer extension by Pol γα on primer-template (15/59) DNA (mtSSB displacement assay), mtSSB_(l2.3) at 1:1 (~10%) and three-fold molar ratio to DNA template [2]: ~25%

Molecule: B3
Kd [1]: 26 nM

Molecule: ATTATGAATTAATTTAATAATTTTTTTTTTTTTTTTTTTT (ssDNA, 5'-biotin) [BTN-ssDNA 40-mer]
Kd (mtSSB (wild type)): 2.3 nM
